The results in this text go back to US7884067B2, “Peptides derived from cadherin and methods of use thereof” (Mount Sinai School of Medicine of New York University, priority 2001, dated 2011).

Assay [1] has as its system N-cadherin. The experiment in a line: In vitro ε-cleavage assay, membranes from mouse brain neuronal cultures. As to conditions: PS1+/− neurons, L-685,458 (0.5 μM). Format: biochemical. How it is done: Primary, neuronal cultures. Mixed hippocampal and cortical neuronal cultures were prepared from E18 mouse or rat brains as described by Banker and Goslin (1991) Culturing Nerves Cells, London, MIT Press. Neurons were maintained 10 days in vitro in glial conditioned MEM containing 2% glucose and N2 supplements as described by Bottenstein and Sato (1979) Proc. Natl. Acad. Sci. USA 76: 514-517, and then were stimulated for 15 minutes with Mg2+-free Hanks' balanced salt solution (HBSS, Sigma) containing KCl (50 mM), L-Glutamate ([…]) or NMDA ([…]). D-APV ([…]) was applied 15 minutes before stimulation.
In vitro γ-secretase-like ε-cleavage assay. Cells were washed in PBS, resuspended in 1 ml of 4° C. hypotonic buffer (10 mM MOPS, pH 7.0, 10 mM KCl) and homogenized on ice. A post-nuclear supernatant was prepared by centrifugation at 1000×g for 15 minutes at 4° C. Crude membranes were isolated from the post-nuclear supernatant by centrifugation at 16,000×g for 40 minutes at 4° C. The membranes were then resuspended in […] of assay buffer (150 mM sodium citrate, pH 6.4, 1× Complete protease inhibitor cocktail), and incubated at 37° C. for 2 hours. Samples were either analyzed directly by WB or separated into pellet (P100) and supernatant (S100) fractions by ultracentrifugation for 1 hour at 100,000×g at 4° C. The S100 and P100 fractions were then analyzed by WB.

The target of assay [2] is T1, CBP (Mus musculus, UniProt P45481).
T1 construct: a process that relies on endogenous CBP and CREB; endogenous in cells; host or cells: L cells transfected with vector or pN-Cad/CTF2
T1 sequence (P45481 whole entry): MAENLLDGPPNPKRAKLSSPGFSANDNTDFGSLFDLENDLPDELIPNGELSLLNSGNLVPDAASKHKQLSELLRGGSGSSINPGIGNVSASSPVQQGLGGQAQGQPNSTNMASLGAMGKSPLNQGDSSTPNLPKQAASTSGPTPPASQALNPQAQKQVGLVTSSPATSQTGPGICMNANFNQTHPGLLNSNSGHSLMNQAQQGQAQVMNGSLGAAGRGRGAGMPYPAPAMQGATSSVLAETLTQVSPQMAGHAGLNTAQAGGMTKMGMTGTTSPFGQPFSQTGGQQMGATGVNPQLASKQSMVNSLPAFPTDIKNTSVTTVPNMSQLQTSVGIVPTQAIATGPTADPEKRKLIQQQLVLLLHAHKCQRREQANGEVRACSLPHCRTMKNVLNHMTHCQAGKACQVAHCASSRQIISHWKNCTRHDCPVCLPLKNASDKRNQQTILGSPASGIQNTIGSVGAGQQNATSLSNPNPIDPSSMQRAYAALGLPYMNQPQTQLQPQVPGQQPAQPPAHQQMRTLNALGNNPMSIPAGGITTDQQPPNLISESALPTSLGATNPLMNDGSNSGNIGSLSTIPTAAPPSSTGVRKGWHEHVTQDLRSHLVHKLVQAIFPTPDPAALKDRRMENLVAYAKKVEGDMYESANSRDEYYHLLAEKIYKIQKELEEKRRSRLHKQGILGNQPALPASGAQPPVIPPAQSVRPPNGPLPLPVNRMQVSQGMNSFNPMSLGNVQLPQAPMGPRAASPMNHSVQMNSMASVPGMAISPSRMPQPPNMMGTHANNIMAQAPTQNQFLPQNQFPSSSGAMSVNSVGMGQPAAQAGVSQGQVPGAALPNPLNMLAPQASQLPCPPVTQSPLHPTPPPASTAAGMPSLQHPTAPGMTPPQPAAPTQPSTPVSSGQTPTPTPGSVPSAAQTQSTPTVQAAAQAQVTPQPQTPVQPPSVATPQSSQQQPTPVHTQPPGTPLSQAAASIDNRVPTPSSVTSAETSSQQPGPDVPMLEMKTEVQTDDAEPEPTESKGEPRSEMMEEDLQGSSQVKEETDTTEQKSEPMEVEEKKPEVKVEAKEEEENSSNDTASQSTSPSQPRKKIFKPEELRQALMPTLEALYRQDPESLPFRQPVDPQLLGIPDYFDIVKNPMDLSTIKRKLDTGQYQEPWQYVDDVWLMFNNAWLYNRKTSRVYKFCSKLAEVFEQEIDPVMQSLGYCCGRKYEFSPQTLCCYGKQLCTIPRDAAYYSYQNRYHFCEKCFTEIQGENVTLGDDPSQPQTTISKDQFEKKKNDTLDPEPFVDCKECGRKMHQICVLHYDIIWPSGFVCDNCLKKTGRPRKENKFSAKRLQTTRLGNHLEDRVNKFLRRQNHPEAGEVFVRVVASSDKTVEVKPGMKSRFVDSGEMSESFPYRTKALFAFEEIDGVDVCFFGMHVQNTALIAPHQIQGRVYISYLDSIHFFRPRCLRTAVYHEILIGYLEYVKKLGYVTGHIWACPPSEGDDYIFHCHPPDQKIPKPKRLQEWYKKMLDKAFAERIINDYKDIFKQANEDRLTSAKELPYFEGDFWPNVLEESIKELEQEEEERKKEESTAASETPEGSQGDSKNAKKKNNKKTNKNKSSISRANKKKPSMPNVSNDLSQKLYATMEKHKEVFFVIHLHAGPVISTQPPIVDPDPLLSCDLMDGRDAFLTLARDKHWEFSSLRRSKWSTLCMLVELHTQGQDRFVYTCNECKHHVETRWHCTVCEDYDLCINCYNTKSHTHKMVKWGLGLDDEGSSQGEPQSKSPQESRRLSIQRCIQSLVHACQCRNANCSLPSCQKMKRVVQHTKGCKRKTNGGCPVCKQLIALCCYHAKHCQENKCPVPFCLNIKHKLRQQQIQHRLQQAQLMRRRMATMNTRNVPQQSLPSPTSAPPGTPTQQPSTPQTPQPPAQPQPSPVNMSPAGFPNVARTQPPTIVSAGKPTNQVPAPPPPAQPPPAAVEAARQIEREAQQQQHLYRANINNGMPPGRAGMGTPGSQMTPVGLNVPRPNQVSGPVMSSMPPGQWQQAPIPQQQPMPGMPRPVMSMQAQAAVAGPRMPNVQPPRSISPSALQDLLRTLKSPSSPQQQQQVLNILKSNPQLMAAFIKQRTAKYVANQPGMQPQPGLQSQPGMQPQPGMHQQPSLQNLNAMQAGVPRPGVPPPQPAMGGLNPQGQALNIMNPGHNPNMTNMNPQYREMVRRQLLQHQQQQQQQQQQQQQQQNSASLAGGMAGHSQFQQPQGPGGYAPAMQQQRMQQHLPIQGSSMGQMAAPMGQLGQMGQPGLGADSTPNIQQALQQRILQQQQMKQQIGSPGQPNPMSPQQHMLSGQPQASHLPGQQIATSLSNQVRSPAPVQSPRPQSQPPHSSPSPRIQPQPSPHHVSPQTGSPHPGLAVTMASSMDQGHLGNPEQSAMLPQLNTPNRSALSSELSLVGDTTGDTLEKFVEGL
Nature of the assay: Co-immunoprecipitation in pN-Cad/CTF2-transfected L cells. The assay is classed as binding. The settings on record: FIG. 11B. As for the experimental part: Immunoprecipitations (IPs), immunoblotting and immunofluorescence. IPs were performed as described by Marambaud et al. (2002) EMBO J. 21: 1948-1956 in 4° C. HEPES buffer (25 mM HEPES, pH 7.4, 150 mM NaCl, 1× Complete protease inhibitor cocktail, Roche) containing 0.5% Nonidet P40 (NP40). For western blot (WB) analysis, cells were solubilized in 4° C. RIPA buffer (50 mM Tris-HCl, pH 8, 150 mM NaCl, 0.1% SDS, 1% NP-40, 0.5% sodium deoxycholate, 1× Complete protease inhibitor cocktail) as described by Marambaud et al. (2002). Immunofluorescence was performed as described by Georgakopoulos et al. (1999) with the following modifications: to visualize nuclei, cells were treated for 5 minutes with 4′,6-diamidino-2-phenylndole (DAPI, 1:5000; Sigma). Fluorescence microscopy and digital image acquisition were carried out using an Axioskop2 microscope (Zeizz).
To determine how N-Cad/CTF2 affects CREB-mediated transcription, the following experiments were performed. L cells transfected either with vector (vector) or pN-Cad/CTF2 (N-Cad/CTF2) plasmids were fractionated into nuclear and cytosolic fractions, and probed on WBs with anti-CBP (FIG. 11A, panel a), anti-N-cadherin (FIG. 11A, panel b), anti-β-tubulin (FIG. 11A, panel c) or anti-phosphorylated CREB (P-CREB; FIG. 11A, panel d) antibodies. […] L cells transiently transfected with pN-Cad/CTF2 were analyzed by immunofluorescence staining. […]

Assay [3] deals with CHOP-response elements. Nature of the assay: CHOP-mediated transactivation (luciferase) in L cells. Format: cell-based. The settings on record: L cells transfected with pN-Cad/CTF2, FIG. 9A. As for the experimental part:
Transactivation assays. CRE-dependent transactivation was measured in the absence or presence of overexpression of PKA (pFC-PKA, Stratagene) by cotransfection with CRE-luciferase reporter plasmid (pCRE-Luc, Stratagene) and pSV-β-galactosidase vector (Promega) to evaluate transfection efficiency. CHOP-mediated transactivation was measured by cotransfection with the Gal4-fusion trans-activator plasmids (pFA-CHOP and pFR-Luc, Stratagene). 30 hours after transfection, luciferase and β-galactosidase activities were determined following manufacturer's instructions using a TD-20/20 luminometer (Turner Designs) and a DU-64 spectrophotometer (Beckman). Values were normalized to β-galactosidase activity and protein concentration.
Stimulation of synaptic NMDA receptor leads to phosphorylation of transcription factor CREB that then recruits transcription co-activator CBP, a process ultimately leading to activation of CREB-mediated gene expression (Impey and Goodman (2001) Sci STKE, PE1). […] CRE-dependent transactivation was measured in the absence (−) or presence (+) of […] PKA (pFC-PKA) using CRE-luciferase reporter plasmid (pCRE-Luc) and pSV-β-galactosidase vector. CHOP-mediated transactivation was measured by […] with the Gal4-fusion trans-activator plasmids (pFA-CHOP and pFR-Luc) and pSV-β-galactosidase vector. […]

On to `CC(C)C[C@H](NC(=O)[C@H](Cc1ccccc1)C[C@@H](O)[C@H](Cc1ccccc1)NC(=O)OC(C)(C)C)C(=O)N[C@@H](Cc1ccccc1)C(N)=O` [L-685,458], for which the N-Cad/CTF2 peptide entry in assay [1] is reported as “inhibited”.

B1: N-Cad/CTF2: chicken cytoplasmic domain of N-cadherin (N-Cad/CTF2) inserted into vector pECE, expressed in L cells (protein)
chain: KRRDKERQAKQLLIDPEDDVRDNILKYDEEGGGEEDQDYDLSQLQQPDTVEPDAIKPVGIRRLDERPIHAEPQYPVRSAAPHPGDIGDFINEGLKAADNDPTAPPYDSLLVFDYEGSGSTAGSLSSLNSSSSGGEQDYDYLNDWGPRFKKLADMYGGGDD
As for B1, the “co-immunoprecipitation of N-Cad/CTF2 with CBP” value in assay [2] is recorded as “co-immunoprecipitates with CBP”. Also, the “transactivation by CHOP-response elements” value in assay [3] is listed as “not affected”.
